Measurements as given in US20210301025A1 (published 2021).
Positions count from the first letter of the chain named. Names may count otherwise.

B1: P54AR4-83v2 L7C, NEM conjugate (designed binder, not shown: small tags and cut ends)
chain: LPAPKNCVVSEVTEDSARLSWDDPWAFYESFLIQYQESEKVGEAIVLTVPGSERSYDLTGLKPGTEYTVSIYGVHNVYKDTNMRGLPLSAIFTT
modifications: N-ethyl maleimide (NEM) on Cys 7
B2: P54AR4-83v2 N76C, NEM conjugate (designed binder, not shown: small tags and cut ends)
chain: B1 chain with C7L, N76C
modifications: N-ethyl maleimide (NEM) on Cys 76
B3: P54AR4-83v2 N6C, NEM conjugate (designed binder, not shown: small tags and cut ends)
chain: B1 chain with N6C, C7L
modifications: N-ethyl maleimide (NEM) on Cys 6
B4: P54AR4-83v2 P50C, NEM conjugate (designed binder, not shown: small tags and cut ends)
chain: B1 chain with C7L, P50C
modifications: N-ethyl maleimide (NEM) on Cys 50
B5: P54AR4-83v2 S38C, NEM conjugate (designed binder, not shown: small tags and cut ends)
chain: B1 chain with C7L, S38C
modifications: N-ethyl maleimide (NEM) on Cys 38
B6: P54AR4-83v2 T48C, NEM conjugate (designed binder, not shown: small tags and cut ends)
chain: B1 chain with C7L, T48C
modifications: N-ethyl maleimide (NEM) on Cys 48
B7: P54AR4-83v2 L47C, NEM conjugate (designed binder, not shown: small tags and cut ends)
chain: B1 chain with C7L, L47C
modifications: N-ethyl maleimide (NEM) on Cys 47
B8: P54AR4-83v2 N82C, NEM conjugate (designed binder, not shown: small tags and cut ends)
chain: B1 chain with C7L, N82C
modifications: N-ethyl maleimide (NEM) on Cys 82
B9: P54AR4-83v2 S55C, NEM conjugate (designed binder, not shown: small tags and cut ends)
chain: B1 chain with C7L, S55C
modifications: N-ethyl maleimide (NEM) on Cys 55
B10: P54AR4-83v2 S16C, NEM conjugate (designed binder, not shown: small tags and cut ends)
chain: B1 chain with C7L, S16C
modifications: N-ethyl maleimide (NEM) on Cys 16
B11: P54AR4-83v2 P2C, NEM conjugate (designed binder, not shown: small tags and cut ends)
chain: B1 chain with P2C, C7L
modifications: N-ethyl maleimide (NEM) on Cys 2
B12: P54AR4-83v2 T93C, NEM conjugate (designed binder, not shown: small tags and cut ends)
chain: B1 chain with C7L, T93C
modifications: N-ethyl maleimide (NEM) on Cys 93
B13: P54AR4-83v2 V12C, NEM conjugate (designed binder, not shown: small tags and cut ends)
chain: B1 chain with C7L, V12C
modifications: N-ethyl maleimide (NEM) on Cys 12
B14: P54AR4-83v2 M83C, NEM conjugate (designed binder, not shown: small tags and cut ends)
chain: B1 chain with C7L, M83C
modifications: N-ethyl maleimide (NEM) on Cys 83
B15: P54AR4-83v2 S20C, NEM conjugate (designed binder, not shown: small tags and cut ends)
chain: B1 chain with C7L, S20C
modifications: N-ethyl maleimide (NEM) on Cys 20
notes: also called 520C
B16: P54AR4-83v2 Q34C, NEM conjugate (designed binder, not shown: small tags and cut ends)
chain: B1 chain with C7L, Q34C
modifications: N-ethyl maleimide (NEM) on Cys 34
B17: P54AR4-83v2 P87C, NEM conjugate (designed binder, not shown: small tags and cut ends)
chain: B1 chain with C7L, P87C
modifications: N-ethyl maleimide (NEM) on Cys 87
B18: P54AR4-83v2 S30C, NEM conjugate (designed binder, not shown: small tags and cut ends)
chain: B1 chain with C7L, S30C
modifications: N-ethyl maleimide (NEM) on Cys 30
notes: also called 530C
B19: P54AR4-83v2 T81C, NEM conjugate (designed binder, not shown: small tags and cut ends)
chain: B1 chain with C7L, T81C
modifications: N-ethyl maleimide (NEM) on Cys 81
B20: P54AR4-83v2 L86C, NEM conjugate (designed binder, not shown: small tags and cut ends)
chain: B1 chain with C7L, L86C
modifications: N-ethyl maleimide (NEM) on Cys 86
B21: P54AR4-83v2 P63C, NEM conjugate (designed binder, not shown: small tags and cut ends)
chain: B1 chain with C7L, P63C
modifications: N-ethyl maleimide (NEM) on Cys 63
B22: P54AR4-83v2 L88C, NEM conjugate (designed binder, not shown: small tags and cut ends)
chain: B1 chain with C7L, L88C
modifications: N-ethyl maleimide (NEM) on Cys 88
B23: P54AR4-83v2 R84C, NEM conjugate (designed binder, not shown: small tags and cut ends)
chain: B1 chain with C7L, R84C
modifications: N-ethyl maleimide (NEM) on Cys 84
B24: P54AR4-83v2 L32C, NEM conjugate (designed binder, not shown: small tags and cut ends)
chain: B1 chain with C7L, L32C
modifications: N-ethyl maleimide (NEM) on Cys 32
B25: P54AR4-83v2 R54C, NEM conjugate (designed binder, not shown: small tags and cut ends)
chain: B1 chain with C7L, R54C
modifications: N-ethyl maleimide (NEM) on Cys 54
B26: P54AR4-83v2 R18C, NEM conjugate (designed binder, not shown: small tags and cut ends)
chain: B1 chain with C7L, R18C
modifications: N-ethyl maleimide (NEM) on Cys 18
B27: P54AR4-83v2 S89C, NEM conjugate (designed binder, not shown: small tags and cut ends)
chain: B1 chain with C7L, S89C
modifications: N-ethyl maleimide (NEM) on Cys 89
B28: P54AR4-83v2 T68C, NEM conjugate (designed binder, not shown: small tags and cut ends)
chain: B1 chain with C7L, T68C
modifications: N-ethyl maleimide (NEM) on Cys 68
notes: not used
B29: P54AR4-83v2 V9C, NEM conjugate (designed binder, not shown: small tags and cut ends)
chain: B1 chain with C7L, V9C
modifications: N-ethyl maleimide (NEM) on Cys 9
B30: P54AR4-83v2 V46C, NEM conjugate (designed binder, not shown: small tags and cut ends)
chain: B1 chain with C7L, V46C
modifications: N-ethyl maleimide (NEM) on Cys 46
B31: P54AR4-83v2 P4C, NEM conjugate (designed binder, not shown: small tags and cut ends)
chain: B1 chain with P4C, C7L
modifications: N-ethyl maleimide (NEM) on Cys 4
B32: P54AR4-83v2 V8C, NEM conjugate (designed binder, not shown: small tags and cut ends)
chain: B1 chain with C7L, V8C
modifications: N-ethyl maleimide (NEM) on Cys 8
B33: P54AR4-83v2 S70C, NEM conjugate (designed binder, not shown: small tags and cut ends)
chain: B1 chain with C7L, S70C
modifications: N-ethyl maleimide (NEM) on Cys 70
notes: also called 570C
B34: P54AR4-83v2 S10C, NEM conjugate (designed binder, not shown: small tags and cut ends)
chain: B1 chain with C7L, S10C
modifications: N-ethyl maleimide (NEM) on Cys 10
B35: P54AR4-83v2 V41C, NEM conjugate (designed binder, not shown: small tags and cut ends)
chain: B1 chain with C7L, V41C
modifications: N-ethyl maleimide (NEM) on Cys 41
B36: P54AR4-83v2 P24C, NEM conjugate (designed binder, not shown: small tags and cut ends)
chain: B1 chain with C7L, P24C
modifications: N-ethyl maleimide (NEM) on Cys 24
B37: P54AR4-83v2 T13C, NEM conjugate (designed binder, not shown: small tags and cut ends)
chain: B1 chain with C7L, T13C
modifications: N-ethyl maleimide (NEM) on Cys 13
B38: P54AR4-83v2 S52C, NEM conjugate (designed binder, not shown: small tags and cut ends)
chain: B1 chain with C7L, S52C
modifications: N-ethyl maleimide (NEM) on Cys 52
B39: P54AR4-83v2 T59C, NEM conjugate (designed binder, not shown: small tags and cut ends)
chain: B1 chain with C7L, T59C
modifications: N-ethyl maleimide (NEM) on Cys 59

Target: T1, EGFR (form used in the assay not stated) (human, UniProt P00533 25-645, limits assumed)
Assay: ELISA, NEM conjugate, 500 nM

Binder	binding relative to P54AR4-83v2 parent [ratio]
B1	0.9
B2	0.91
B3	0.89
B4	0.97
B5	0.82
B6	0.93
B7	0.91
B8	0.96
B9	0.11
B10	0.63
B11	0.01
B12	1.04
B13	0.93
B14	0.24
B15	0.91
B16	0.94
B17	0.91
B18	0.9
B19	1.02
B20	0.92

Binder	binding relative to P54AR4-83v2 parent [ratio]
B21	0.92
B22	0.97
B23	0.98
B24	0.91
B25	0.93
B26	0.94
B27	1.04
B28	0.95
B29	0.93
B30	0.9
B31	0.12
B32	0.9
B33	0.93
B34	0.96
B35	0.95
B36	0.83
B37	0.9
B38	0.93
B39	0.93

Target: T1, EGFR (form used in the assay not stated)
Assay: ELISA, NEM conjugate, 10 nM

Binder	binding relative to P54AR4-83v2 parent [ratio]
B1	0.35
B2	0.75
B3	0.76
B4	0.91
B5	0.8
B6	0.88
B7	0.92
B8	0.56
B9	0
B10	0.88
B11	0
B12	0.96
B13	0.87
B14	0.07
B15	0.81
B16	0.89
B17	0.73
B18	0.9
B19	0.5
B20	0.77

Binder	binding relative to P54AR4-83v2 parent [ratio]
B21	0.95
B22	0.95
B23	0.91
B24	0.87
B25	0.89
B26	0.86
B27	0.97
B28	0.83
B29	0.94
B30	0.61
B31	0.02
B32	0.96
B33	0.86
B34	0.83
B35	0.92
B36	0.45
B37	0.87
B38	0.78
B39	0.83

Target: T1, EGFR (form used in the assay not stated)
Assay: ELISA, NEM conjugate, 100 nM

Binder	binding relative to P54AR4-83v2 parent [ratio]
B1	1
B2	0.97
B3	1.01
B4	1.05
B5	0.93
B6	1
B7	1.02
B8	0.97
B9	0
B10	1.05
B11	0
B12	1.05
B13	1.06
B14	0.04
B15	1.05
B16	1.03
B17	0.93
B18	1.02
B19	0.9
B20	0.96

Binder	binding relative to P54AR4-83v2 parent [ratio]
B21	1.02
B22	1.03
B23	1.04
B24	1.01
B25	1.01
B26	1.05
B27	1.02
B28	1.04
B29	1.03
B30	1.01
B31	0.02
B32	1.03
B33	1.01
B34	1.07
B35	0.99
B36	0.85
B37	1.04
B38	1.03
B39	1.04
